# B1: XCL: Xerocomus chrysenteron lectin, fungal sporocarp lectin forming a tetramer with central cavity, SEQ ID NO: 1 (protein)
# chain: MSYSITLRVYQTNRDRGYFSIVEKTVWHFANGGTWSEANGAHTLTQGGSGTSGVLRFLSTKGERITVAVGVHNYKRWCDVVTGLKPDETALVINPQYYNNGGRDYVREKQLAEYSVTSAIGTKVEVVYTVAEGNNLEANVIFS
# modifications: Xerocomus chrysenteron
# Experiments:
# Format in all cases: physicochemical
# [1] = Thermal dissociation by tryptophan fluorescence
# Source text: The thermal dissociation of XCL was followed by measuring the intrinsic fluorescence of the tryptophans. Each monomer of XCL contains 3 tryptophan residues: one in a hydrophobic cavity (Trp 77) and two located on the same interface between two monomers (Trp 27 and Trp 35). The inventors used these latter two Trp as probes for the quaternary structure of XCL, by taking advantage of their position in the structure of the tetramer. In order to increase the sensitivity of the measurement, the ratio of the fluorescence intensities 346 nm/330 nm was measured according to the temperature (FIG. 8).
# [2] = Chemical dissociation by size exclusion chromatography at acidic pH
# Method: (§1) The size exclusion chromatography experiments were carried out on a GE-Healthcare Superose 12 PC 3.2/30 column. The columns are pre-balanced in the buffer tested, namely phosphate buffer 50 mM, 100 mM NaCl, pH7.2 or pH 4.4 in the absence or in the presence of 0.003% of SDS. The flow rate is 0.5 mL/min. The BSA and the RNase A are used as a size marker.
# The inventors studied the behaviour of XCL in denaturing chemical conditions close to those encountered in the lysosomes. The analysis was carried out via exclusion chromatography with an acidic pH (pH 4.4). It appears that the elution peak of XCL in these denaturing conditions is displaced to greater elution volumes showing the appearance of a smaller size. When 0.003% SDS is added, the elution peak is displaced to the elution volume of the RNAse A which has a molecular weight close to the XCL monomer.
# The behaviour of the oxidised mutant A38C was also analysed. […] The addition of the disulphide bridge therefore increases the stability of the protein assembly.
# [3] = FRET on dilution, tetramer equilibrium
# Method: The mixture of FITC-XCL and RITC-XCL was diluted to various concentrations and incubated for 1 hour at ambient temperature. The fluorescence spectrum was recorded with a light excitation at 468 nm. In order to substantially determine the decrease in the energy transfer and normalise the intensity of the fluorescence, a ratio I580/I520 was calculated for each concentration and taken according to the concentration in XCL (FIG. 4). […] Evidently, the titration curve is not complete as long as the saturation is not reached for the points with the strongest concentration. Due to the solubility limit of XCL and of the labelling protocol, the concentrations in protein cannot exceed 10 μM in this experiment.
# [4] = Size exclusion chromatography at variable concentration, tetramer equilibrium
# Method: as §1
# In order to confirm the data obtained in FRET, the displacement of the balance was evaluated by gel exclusion chromatography. Bovine Serum Albumin (BSA) and ribonuclease A were used to calibrate the column. Elution volumes of 12.6 ml and of 15.5 ml were obtained respectively. At a strong concentration (here 30 μM), XCL has an elution volume of 13.2 ml close to the elution volume of BSA as expected for tetrameric species. […] However, it was shown by digital simulation that according to the association rate, the rate of dissociation, the flow rate and separation characteristics of the column, two populations of molecules that are exchanging could lead to a single peak via size exclusion chromatography (Yu et al., (2006)). The inventors carried out several injections by using variable concentrations of XCL and observed that indeed a single peak was obtained. However this peak is displaced to longer elution volumes as the concentration decreases, indicating a smaller molecular weight.
# [5] = SDS-PAGE of tetramer and disulphide bridge stability; conditions: 2% of SDS, not heated before deposit
# Method: The clone A38C was obtained by directed mutagenesis by using the XCL plasmid as a matrix and the protein produced and purified by using the same protocol as that used to produce XCL (Trigueros et al. (2003)). A yield of 25 mg of purified protein per litre of culture was obtained. The last part of the protocol consisted in a step of oxidation for 12 hours in the presence of 10 mM of oxidised glutathione. This step is required in order to produce disulphide bridges between the monomers. The forming of these covalent bonds was verified by SDS-PAGE. Two SDS-PAGE were prepared. Beta-mercaptoethanol was added to the samples in the first gel while beta-mercaptoethanol was not added to the second gel. When XCL is heated to 95° C. 5 min before the deposit, a single band is observed with a molecular weight slightly greater than 20 kDa on the two gels. This band corresponds to the species in monomer form.
# A variant T12C was produced in the same manner as A38C by directed mutagenesis by using the XCL plasmid as a matrix. By using the same protocol, 10 mg of protein per litre of culture were produced. The oxidation rate of the variant T12C was sought by using the same method by SDS-PAGE as for A38C. These rates were compared with those obtained with the variant A38C. Several oxidative conditions were tested with different concentrations of reduced glutathione. […]
molecule,measurement,setting,value
B1,temperature before which no modification of the 346 nm/330 nm Trp fluorescence ratio was observed (lectin remained tetrameric),[1],< 50 °C
same,temperature beyond which the protein precipitates out (visual analysis after heating),[1]; precipitates in tetrameric form,> 45 °C
same,oligomeric state by elution volume at pH 4.4 with SDS,"[2]; pH 4.4, 0.003% SDS",these dimers are dissociated into monomers
same,oligomeric state by elution volume at pH 4.4,"[2]; pH 4.4, no SDS",dissociation of the tetramer into a dimer
same,concentration of the transition in energy transfer intensity (I580/I520),[3]; 1 hour at ambient temperature,close to the micromolar
same,maximum protein concentration (solubility limit and labelling protocol),[3]; labelled XCL in FRET experiment,≤ 10 µM
same,concentration of the transition in elution volume,[4],close to the micromolar
same,oligomeric form on SDS-PAGE,[5],remained in tetrameric form
